Source: publication PMC12402178 (2025)

What was measured:
[1] = target: T1, microtubules polymerised from porcine brain tubulin (GMPCPP-stabilised seeds, dynamic GDP lattice, or … (porcine, UniProt P02550 1-451, part of the tubulin labelled with Rhodamine or HiLyte 647)); part biotinylated (surface-immobilised microtubules) | part of the tubulin labelled with Rhodamine or HiLyte 647; part biotinylated …); assay: FRAP, microtubule-microtubule overlap (median)
[2] = target: T1, microtubules polymerised from porcine …; assay: FRAP, actin-microtubule overlap (median), with actin filaments

T1 sequence (P02550 whole entry, chain 1 of 2): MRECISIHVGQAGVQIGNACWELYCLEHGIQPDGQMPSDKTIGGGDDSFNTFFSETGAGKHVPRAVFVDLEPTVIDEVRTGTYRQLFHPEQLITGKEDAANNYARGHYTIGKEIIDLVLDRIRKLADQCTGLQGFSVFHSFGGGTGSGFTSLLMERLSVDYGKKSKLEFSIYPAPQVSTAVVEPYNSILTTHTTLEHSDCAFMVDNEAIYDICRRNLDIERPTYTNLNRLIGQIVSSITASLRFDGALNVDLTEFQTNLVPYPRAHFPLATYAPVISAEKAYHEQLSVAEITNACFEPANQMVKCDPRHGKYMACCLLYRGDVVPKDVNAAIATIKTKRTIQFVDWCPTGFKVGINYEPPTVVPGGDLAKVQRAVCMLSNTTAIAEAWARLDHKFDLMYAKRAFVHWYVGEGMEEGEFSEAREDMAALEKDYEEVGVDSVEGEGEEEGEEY
T1 sequence (chain, as listed by the source, chain 2 of 2): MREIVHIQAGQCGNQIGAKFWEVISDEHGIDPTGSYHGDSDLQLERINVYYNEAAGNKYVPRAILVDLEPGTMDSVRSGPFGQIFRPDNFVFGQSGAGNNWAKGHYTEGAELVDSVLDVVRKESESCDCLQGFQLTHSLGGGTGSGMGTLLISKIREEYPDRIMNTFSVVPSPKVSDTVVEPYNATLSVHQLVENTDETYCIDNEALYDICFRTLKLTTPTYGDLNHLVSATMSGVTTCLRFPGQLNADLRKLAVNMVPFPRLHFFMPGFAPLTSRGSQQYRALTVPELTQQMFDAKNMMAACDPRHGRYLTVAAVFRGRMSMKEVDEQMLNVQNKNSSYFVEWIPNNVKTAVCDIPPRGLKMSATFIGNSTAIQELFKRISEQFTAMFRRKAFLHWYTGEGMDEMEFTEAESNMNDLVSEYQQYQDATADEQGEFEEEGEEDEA

koff [1]: 0.29 s⁻¹ | koff [2]: 0.513 s⁻¹
B1: Anillin-GFP (full-length human anillin, isoform 2, 1087 amino acids) (natural protein)
chain: MDPFTEKLLERTRARRENLQRKMAERPTAAPRSMTHAKRARQPLSEASNQQPLSGGEEKSCTKPSPSKKRCSDNTEVEVSNLENKQPVESTSAKSCSPSPVSPQVQPQAADTISDSVAVPASLLGMRRGLNSRLEATAASSVKTRMQKLAEQRRRWDNDDMTDDIPESSLFSPMPSEEKAASPPRPLLSNASATPVGRRGRLANLAATICSWEDDVNHSFAKQNSVQEQPGTACLSKFSSASGASARINSSSVKQEATFCSQRDGDASLNKALSSSADDASLVNASISSSVKATSPVKSTTSITDAKSCEGQNPELLPKTPISPLKTGVSKPIVKSTLSQTVPSKGELSREICLQSQSKDKSTTPGGTGIKPFLERFGERCQEHSKESPARSTPHRTPIITPNTKAIQERLFKQDTSSSTTHLAQQLKQERQKELACLRGRFDKGNIWSAEKGGNSKSKQLETKQETHCQSTPLKKHQGVSKTQSLPVTEKVTENQIPAKNSSTEPKEVIREIEMSVDDDDINSSKVINDLFSDVLEEGELDMEKSQEEMDQALAESSEEQEDALNISSMSLLAPLAQTVGVVSPESLVSTPRLELKDTSRSDESPKPGKFQRTRVPRAESGDSLGSEDRDLLYSIDAYRSQRFKETERPSIKQVIVRKEDVTSKLDEKNNAFPCQVNIKQKMQELNNEINMQQTVIYQASQALNCCVDEEHGKGSLEEAEAERLLLIATGKRTLLIDELNKLKNEGPQRKNKASPQSEFMPSKGSVTLSEIRLPLKADFVCSTVQKPDAANYYYLIILKAGAENMVATPLASTSNSLNGDALTFTTTFTLQDVSNDFEINIEVYSLVQKKDPSGLDKKKKTSKSKAITPKRLLTSITTKSNIHSSVMASPGGLSAVRTSNFALVGSYTLSLSSVGNTKFVLDKVPFLSSLEGHIYLKIKCQVNSSVEERGFLTIFEDVSGFGAWHRRWCVLSGNCISYWTYPDDEKRKNPIGRINLANCTSRQIEPANREFCARRNTFELITVRPQREDDRETLVSQCRDTLCVTKNWLSADTKEERDLWMQKLNQVLVDIRLWQPDACYKPIGKP
